Source: publication PMC5513931

Biological target: T1, protease-activated receptor 2 (rat (endogenous in isolated Sprague Dawley rat arteries)) (UniProt Q63645)
T1 sequence: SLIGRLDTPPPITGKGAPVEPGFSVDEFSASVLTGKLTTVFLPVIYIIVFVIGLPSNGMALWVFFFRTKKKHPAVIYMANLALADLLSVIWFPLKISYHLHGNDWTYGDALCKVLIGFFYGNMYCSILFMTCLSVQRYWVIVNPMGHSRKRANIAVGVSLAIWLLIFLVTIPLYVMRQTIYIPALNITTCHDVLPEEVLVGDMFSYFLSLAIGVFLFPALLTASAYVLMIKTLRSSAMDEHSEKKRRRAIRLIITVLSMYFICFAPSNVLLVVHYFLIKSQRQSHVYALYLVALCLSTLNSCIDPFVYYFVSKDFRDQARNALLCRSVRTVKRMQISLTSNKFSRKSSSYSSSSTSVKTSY

EC50 of vasodilatation to SLIGRL (10 nM-10 uM), wire myography, MRA pre-constricted with 1 uM phenylephrine, control: 7.02 µM
EC50 of vasodilatation to SLIGRL (100 nM-100 uM), wire myography, basilar artery pre-constricted with 1 uM 5-HT, control: 9.65 µM
EC50 of vasodilatation to SLIGRL, wire myography, MRA from heparin-treated rats with 0.1 mM L-NNA, control: 86.4 µM
EC50 of vasodilatation to SLIGRL, wire myography, MRA from heparin-treated rats with 0.1 mM L-NNA, pre-incubated with 10 uM apixaban: 6.45 µM
EC50 of vasodilatation to SLIGRL, wire myography, MRA from heparin-treated rats, control: 1.04 µM
EC50 of vasodilatation to SLIGRL, wire myography, MRA from heparin-treated rats, pre-incubated with 10 uM apixaban: 0.71 µM
EC50 of vasodilatation to SLIGRL, wire myography, MRA pre-constricted with 1 uM phenylephrine, pre-incubated with 10 uM apixaban: 1.83 µM
EC50 of vasodilatation to SLIGRL, wire myography, MRA with 0.1 mM L-NNA, control: 3.03 µM
EC50 of vasodilatation to SLIGRL, wire myography, MRA with 0.1 mM L-NNA, pre-incubated with 10 uM apixaban: 2.27 µM
EC50 of vasodilatation to SLIGRL, wire myography, basilar artery pre-constricted with 1 uM 5-HT, pre-incubated with 10 uM apixaban: 4.41 µM
EC50 of vasodilatation to SLIGRL, wire myography, basilar artery with 0.1 mM L-NNA, control: 34.1 µM
EC50 of vasodilatation to SLIGRL, wire myography, basilar artery with 0.1 mM L-NNA, pre-incubated with 10 uM apixaban: 20.3 µM
Binder: SLIGRL [PAR-2 peptide agonist SLIGRL]
